Laboratory results taken from patent US20240343788A1 (published 2024).

Target: T1, A155
T1 construct: also called antibody-based multispecific antagonist A155
Assay: BLI (Octet RED96), antagonist captured on biosensor, ligand in solution
Source text: The binding sensorgrams were collected using the 8-channel detection mode on the biosensor.

B1: TGF-β3 (ligand)
chain: ALDTNYCFRNLEENCCVRPLYIDFRQDLGWKWVHEPKGYYANFCSGPCPYLRSADTTHSTVLGLYNTLNPEASASPCCVPQDLEPLTILYYVGRTPKVEQLSNMVVKSCKCS
notes: also called TGF-33 (misprint in the text)
Kd: ~20 nM
